# According to patent US20240189408A1, “COMPOSITIONS AND METHODS FOR REDUCING METHANE EMISSIONS IN RUMINANT POPULATIONS” (Arkea Bio Corp., priority 2022, published 2024):
# “And” between values parts separate entries of the source, which are not always exact repeats. Identical values can stand only once.
# B1: ARK015: mRNA: OVA + STOP, cytosolic OVA; SEQ ID NO: 16675 (nucleic acid)
# chain: ATGTTCGTGTTCCTCGTGCTCCTGCCCCTCGTCTCCAGCCAGTGCGTGGGGTCCATAGGGGCTGCTTCTATGGAGTTCTGTTTTGATGTTTTCAAGGAACTGAAGGTTCACCATGCTAACGAGAACATCTTTTACTGTCCAATAGCCATCATGAGTGCGCTTGCTATGGTTTATTTGGGTGCAAAAGATTCTACTCGCACTCAGATTAATAAGGTCGTTAGATTCGACAAGCTTCCAGGGTTTGGAGACAGTATTGAGGCCCAATGTGGAACGTCAGTCAACGTCCATTCTTCTCTGCGGGACATTCTCAACCAAATAACGAAGCCAAACGACGTGTATTCCTTCTCACTCGCGTCACGGCTGTATGCTGAAGAAAGGTATCCTATCTTGCCAGAATATCTCCAGTGCGTCAAGGAGTTGTATCGAGGCGGACTGGAACCGATCAACTTTCAGACTGCAGCCGACCAGGCCCGCGAACTGATCAACAGCTGGGTCGAGTCTCAGACCAATGGGATCATACGCAATGTGTTGCAACCGAGTAGTGTCGACTCTCAGACGGCTATGGTCTTGGTGAACGCTATAGTCTTCAAAGGTCTGTGGGAGAAGACCTTCAAGGATGAAGACACACAAGCGATGCCATTCAGAGTCACCGAACAAGAAAGCAAACCCGTCCAAATGATGTACCAAATTGGGCTTTTTCGGGTGGCCTCTATGGCCTCTGAGAAAATGAAAATATTGGAACTGCCCTTCGCCAGCGGCACAATGAGTATGTTGGTCCTTCTTCCAGATGAAGTCTCAGGTCTCGAACAGCTTGAGTCTATCATTAACTTTGAGAAACTCACTGAATGGACTTCTTCCAATGTGATGGAAGAACGAAAAATCAAAGTCTACCTGCCCCGAATGAAGATGGAAGAGAAATATAATTTGACATCAGTTCTGATGGCCATGGGAATCACAGACGTGTTTTCATCCTCTGCGAATCTGTCTGGCATATCTTCCGCAGAATCTCTCAAGATCAGTCAAGCCGTCCACGCGGCCCATGCTGAGATAAATGAGGCGGGCAGAGAGGTGGTGGGGTCCGCCGAAGCTGGAGTCGACGCAGCTTCTGTCAGTGAAGAATTTAGGGCCGATCATCCTTTCCTGTTCTGCATAAAGCACATAGCTACGAACGCTGTGCTTTTCTTTGGCAGATGCGTTTCTCCATGA
# modifications: listed as DNA
# Legend:
# [1] = Adsorbent study: binding affinity and adsorptive capacity for 3-NOP, HPLC at 230 nm; details: 0.2 g of adsorbent in 10 mL of 1% 3-NOP/H2O, after 24h; control 8.258 mM
# Description: The solution was then placed in an ultrasonic bath for ˜4 hr and then allowed to equilibrate over 24h.
# rumen methanogens = details: cited from earlier work
# total IgG = experiment: Total sera IgG by radial immunodiffusion after IM or SQ vaccination with OVA mRNA LNPs; format: in vivo, dairy cows; details: for Serum IgG Concentration: one line per animal replicate
# Description: (§1) Bovine nucleic acid vaccination protocols (SQ and IM) were assessed in vivo in the dairy cows through the quantification of the adaptive immune response following inoculation with ovalbumin (OVA). Immune response was assessed by quantifying total IgG and OVA-specific IgG over a 28-day period after vaccination. Both SQ and IM vaccination provided a robust immune response, with IM vaccination providing a higher total immune response than SQ vaccination.
# (§2) Dairy cows were dried off for a period of eight days prior to vaccination. Each vaccine formulation was administered either by IM or SQ injection to three animals. In total, 15 animals were vaccinated with LNPs containing mRNA and 6 animals were vaccinated with empty LNPs. Intramuscular injections were delivered into the cow's right neck muscle by veterinary-trained staff using an 18-gauge 1-1.5″ needle. Subcutaneous injections were delivered into the cow's right shoulder by veterinary-trained staff using an 18-gauge 0.5-0.75″ needle. Total blood samples (˜20 mL) were collected by veterinary-trained staff. Samples were collected into 10 mL vacutainer tubes (2×10 mL) from the coccygeal vein (tail vein) by needle puncture. Harvested blood samples were then processed via ultracentrifugation for serum collection. Isolated serum samples were aliquoted, labeled and stored in cryogenic tubes at −20° C. until use.
# Sera samples were thawed on ice and total IgG was quantified using Triple J Farms' Ig Radial Immunodiffusion (RID) kits (Cat No. 728411) following the manufacturers recommended protocol.
# [2] = LNP size and polydispersity by DLS (Malvern Panalytical); format: physicochemical
# Description: (§3) To prepare lipid nanoparticles (LNPs), the mRNA stocks were thawed on ice. Nucleic acid concentrations were validated by absorbance at 260 nm using a NanoDrop. The mRNAs were then diluted to a final concentration of 0.35 mg/mL mRNA in Precision Nanosystem's dilution buffer. 10 mL of the dilute mRNAs were loaded into separate Luer lock syringes and all bubbles were removed by gentle tapping. A NanoAssemblr Ignite NxGen Cartridge was loaded into the cartridge slot of the Ignite instrument (FIG. 8A, 801) and one mRNA syringe was attached to the aqueous inlet of the cartridge. 3.3 mL of Genvoy-ILM reagent was loaded into a separate Luer lock syringes and all bubbles were removed by gentle tapping. The Genvoy-ILM syringe was then attached to the organic inlet of the cartridge. LNPs were then generated and collected into a 15 mL conical tube. The process was repeated for the remaining two mRNAs and for a buffer only LNP control (empty). Immediately after LNPs were generated, the samples were loaded into 10K dialysis cartridges, submerged into 1×DPBS (Ca^2+ and Mg^2+-free) to reduce the ethanol concentration to <0.5%. After dialysis the LNPs were recovered from the dialysis cartridges and sterile filtered at 0.2 um. Size and polydispersity (FIG. 8A, 802) were measured using a Malvern Panalytical DLS by diluting 40 uL of LNPs into 360 uL of 1×DPBS. […] Encapsulation efficiency was measured using a RiboGreen assay following Precision Nanosystems recommended protocol using a BioTek Synergy H1 Plate Reader. The resultant encapsulation efficiencies are shown in Table 14, with an average of ˜85%.
# (§4) To prepare lipid nanoparticles (LNPs), the mRNA stocks were thawed on ice. Nucleic acid concentrations were validated by absorbance at 260 nm using a NanoDrop. The mRNAs were then diluted to a final concentration of 0.35 mg/mL mRNA in Precision Nanosystem's dilution buffer. 10 mL of the dilute mRNAs were loaded into separate Luer lock syringes and all bubbles were removed by gentle tapping. A NanoAssemblr Ignite NxGen Cartridge was loaded into the cartridge slot of the Ignite instrument and one mRNA syringe was attached to the aqueous inlet of the cartridge. 3.3 mL of Genvoy-ILM reagent was loaded into a separate Luer lock syringes and all bubbles were removed by gentle tapping. The Genvoy-LM syringe was then attached to the organic inlet of the cartridge. LNPs were then generated and collected into a 15 mL conical tube. The process was repeated for the remaining mRNAs and for a buffer only LNP control (empty). Immediately after LNPs were generated, the samples were loaded into 10K dialysis cartridges, submerged into Ix DPBS (Ca^2+ and Mg^2+-free) to reduce the ethanol concentration to <0.5%. After dialysis the LNPs were recovered from the dialysis cartridges and sterile filtered at 0.2 um. Size and polydispersity (FIG. 12 and FIG. 13) were measured using a Malvern Panalytical DLS by diluting 40 uL of LNPs into 360 uL of 1×DPBS. […] Encapsulation efficiency was measured using a RiboGreen assay following Precision Nanosystems recommended protocol using a BioTek Synergy H1 Plate Reader. The resultant encapsulation efficiencies are shown in Table 18, with an average of ˜60%.
# (§5) To prepare lipid nanoparticles (LNPs), the mRNA stocks are thawed on ice. Nucleic acid concentrations are validated by absorbance at 260 nm using a NanoDrop. The mRNAs are then diluted to a final concentration of 0.35 mg/mL mRNA in Precision Nanosystem's dilution buffer. 10 mL of the dilute mRNAs are loaded into separate Luer lock syringes and all bubbles are removed by gentle tapping. A NanoAssemblr Ignite NxGen Cartridge is loaded into the cartridge slot of the Ignite instrument and one mRNA syringe is attached to the aqueous inlet of the cartridge. 3.3 mL of Genvoy-ILM reagent is loaded into a separate Luer lock syringes and all bubbles are removed by gentle tapping. The Genvoy-ILM syringe is then attached to the organic inlet of the cartridge. […]
# ovalbumin (OVA) = experiment: OVA-specific IgG ELISA of sera after IM or SQ vaccination; format: in vivo, dairy cows; details: for OVA-specific IgG, Absorbance (OD450): one line per animal replicate
# Description: as §1, §2
# Sera samples were thawed on ice and total IgG was quantified using NovateinBio's Bovine OVA sIgG Antibody ELISA Kit (Cat No. BG-BVN11731) following the manufacturer's recommended protocol. Each of the animals vaccinated with a construct show a demonstrable OVA-specific IgG response over the 28-day test period.
# [3] = LNP encapsulation efficiency, RiboGreen assay; format: physicochemical
# Description: as §3, §4, §5
molecule,measurement,setting,value
C[N+](C)(C)CC(=O)O [Betaine],3-NOP concentration,[1],7.202 mM
O=C([O-])CC(O)(CC(=O)[O-])C(=O)[O-].[Bi+3] [Bismuth Citrate],3-NOP concentration,[1],8.072 mM
O=S(=O)([O-])[O-].O=S(=O)([O-])[O-].O=S(=O)([O-])[O-].[Bi+3].[Bi+3] [Bismuth Sulfate],3-NOP concentration,[1],8.079 mM
O=S(=O)([O-])[O-].[Cu+2] [Copper Sulfate],3-NOP concentration,[1],7.814 mM
NC(=O)CC[C@H](N)C(=O)O [Glutamine],3-NOP concentration,[1],7.588 mM
CC[C@H](C)C(=O)O[C@H]1C[C@@H](C)C=C2C=C[C@H](C)[C@H](CC[C@@H]3C[C@@H](O)CC(=O)O3)[C@H]21 [lovastatin],reduction of total CH4 production by rumen methanogens,"rumen methanogens; extracted from fermented rice straw, after 48 h in vitro incubation",~28%
same,reduction of CH4 production,"rumen methanogens; rumen simulation technique (Rusitec), 150 mg/L",approximately 42%
Bovicin HC5,suppression of CH4 in vitro,rumen methanogens,50%
Catechin,CH4 production,rumen methanogens,decreased CH4 production both in vitro and in vivo
Cyclodextrin,3-NOP concentration,[1],7.676 mM
Nisin,suppression of CH4 in vitro,rumen methanogens,up to 40%
B1,Serum IgG Concentration,"total IgG; IM injection, Day 0, dairy cows, dose 348-468 ug","3,658 mg/dL and 4,086 mg/dL and 3,167 mg/dL"
same,Serum IgG Concentration,"total IgG; IM injection, Day 14, dairy cows, dose 348-468 ug","3,692 mg/dL and 5,735 mg/dL and 3,947 mg/dL"
same,Serum IgG Concentration,"total IgG; IM injection, Day 21, dairy cows, dose 348-468 ug","4,070 mg/dL and 2,488 mg/dL and 3,797 mg/dL"
same,Serum IgG Concentration,"total IgG; IM injection, Day 28, dairy cows, dose 348-468 ug","3,272 mg/dL and 4,153 mg/dL and 2,723 mg/dL"
same,Serum IgG Concentration,"total IgG; SQ injection, Day 0, dairy cows, dose 353-468 ug","4,875 mg/dL and 3,680 mg/dL and 2,964 mg/dL"
same,Serum IgG Concentration,"total IgG; SQ injection, Day 14, dairy cows, dose 353-468 ug","5,972 mg/dL and 3,257 mg/dL and 3,894 mg/dL"
same,Serum IgG Concentration,"total IgG; SQ injection, Day 21, dairy cows, dose 353-468 ug","5,722 mg/dL and 3,149 mg/dL and 3,981 mg/dL"
same,Serum IgG Concentration,"total IgG; SQ injection, Day 28, dairy cows, dose 353-468 ug","4,015 mg/dL and 3,009 mg/dL and 2,221 mg/dL"
same,"total sera IgG immune response, treated groups normalized against the empty groups","total IgG; dairy cows, 3 animals per construct, 28-day test period, FIG. 9",detectable immune response in at least one of the treated animals
same,PDI,"[2]; LNP polydispersity, mRNA LNPs of Table 18",0.130
same,Z-avg.,"[2]; LNP size, mRNA LNPs of Table 18",68.06 nm·days
same,PDI,"[2]; mRNA LNPs, Example 6",0.1705
same,Z-avg.,"[2]; mRNA LNPs, Example 6",96.66 nm·days
same,"OVA-specific IgG, Absorbance (OD450)","ovalbumin (OVA); IM injection, Day 0, dairy cows",0.842 OD450 and 0.938 OD450 and 0.308 OD450
same,"OVA-specific IgG, Absorbance (OD450)","ovalbumin (OVA); IM injection, Day 14, dairy cows",1.653 OD450 and 1.048 OD450 and 0.513 OD450
same,"OVA-specific IgG, Absorbance (OD450)","ovalbumin (OVA); IM injection, Day 21, dairy cows",1.23 OD450 and 1.261 OD450 and 0.443 OD450
same,"OVA-specific IgG, Absorbance (OD450)","ovalbumin (OVA); IM injection, Day 28, dairy cows",1.097 OD450 and 0.999 OD450 and 0.465 OD450
same,"OVA-specific IgG, Absorbance (OD450)","ovalbumin (OVA); SQ injection, Day 0, dairy cows",1.394 OD450 and 1.327 OD450 and 3.178 OD450
same,"OVA-specific IgG, Absorbance (OD450)","ovalbumin (OVA); SQ injection, Day 14, dairy cows",1.287 OD450 and 1.175 OD450 and 2.478 OD450
same,"OVA-specific IgG, Absorbance (OD450)","ovalbumin (OVA); SQ injection, Day 21, dairy cows",1.504 OD450 and 1.277 OD450 and 1.985 OD450
same,"OVA-specific IgG, Absorbance (OD450)","ovalbumin (OVA); SQ injection, Day 28, dairy cows",1.368 OD450 and 1.066 OD450 and 1.691 OD450
same,"OVA-specific IgG response, intramuscular as compared to subcutaneous injection","ovalbumin (OVA); dairy cows, FIG. 10",~4 fold
same,Encapsulation efficiency,[3]; mRNA LNPs of Table 18,62%
same,Encapsulation efficiency,"[3]; mRNA LNPs, Example 6",84%
